In publication PMC6885550:
Read-outs that look alike come from different tables or passages of the source.

Key:
Assay in all cases: FRET or BRET
[1] = molecular target: YFP-DWORF (dwarf open reading frame) (UniProt P0DN84)
[2] = molecular target: YFP-DWORF (dwarf open reading frame) (UniProt P0DN84); remark: listed apart in the source
YFP-sarcolipin (SLN) [3] = molecular target: YFP-sarcolipin (SLN) (UniProt O00631)
YFP-sarcolipin (SLN) [4] = molecular target: YFP-sarcolipin (SLN) (UniProt O00631); remark: listed apart in the source

YFP-sarcolipin (SLN) (from UniProt O00631 1-31) (natural protein), sequence (O00631 whole entry): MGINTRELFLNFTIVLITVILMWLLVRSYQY

Substance: YFP-DWORF (dwarf open reading frame) (from UniProt P0DN84 1-35) (natural protein)
- percent of donors in FRET (oligomer subpopulation) [1]: 23.4%
- percent of donors in FRET (oligomer subpopulation) [2]: 20%

Substance: YFP-sarcolipin (SLN) (from UniProt O00631 1-31) (natural protein)
- stoichiometry N (YFP-sarcolipin (SLN) [3]): 2
- stoichiometry N (YFP-sarcolipin (SLN) [4]): > 2
